The series in a line: Histological analysis (H&E) of post-injection tissue samples. The class given is in vivo, Yucatan miniature pig (Sus scrofa domestica). An excerpt: Following the assessment after day three, the animal was humanely euthanized using an injectable euthanasia drug provided by the vivarium staff. Following euthanasia full thickness punch biopsies of the injection site were taken (12 mm) and placed in 10% formalin. After obtaining the punch biopsies the animal carcass was removed and disposed of as biohazardous waste. Sections were made from tissue samples and assessed for histopathology using hematoxylin and eosin staining methods. Analyses were performed on each injection site (2 biopsies) and one untreated site. Three tissue depths were examined from each tissue section following level sectioning technique, representing the beginning, middle and end of each section.
After fixation the samples were processed and embedded into paraffin to make formalin fixed paraffin embedded (FFPE) tissues sections Each tissue section was evaluated at three different tissue depths (1-2-3; low-medium-high). In addition to tissue samples from the injection site, a sample was taken from naïve untreated tissue for comparison.
Each injection was one mL and was delivered using a pre-filled 1-cc syringe. After the last timepoint, the animal was humanely euthanized. After euthanasia, punch biopsies of each injection site were obtained and preserved in 10% formalin for histological analyses.
After fixation, the samples were processed and embedded into paraffin to make formalin fixed paraffin embedded (FFPE) tissues sections Each tissue section was evaluated at three different tissue depths (1-2-3; low-medium-high). In addition to tissue samples from the injection site, a sample was taken from two naïve untreated tissue sites for comparison. Tissue sections were prepared and stained with hematoxylin and eosin for pathohistological evaluation.
Method: After 72h, animals were euthanized and full-thickness punch biopsies taken (12 mm). FFPE sections were prepared from each injection site. Samples were evaluated at three different tissue depths. A sample of naïve skin was also included for comparison. Results: 1/3 tissue samples from ADC alone had multiple focal infiltrates in SC (all levels).

On to Sacituzumab govitecan [Trodelvy], for which the Local skin tolerability entry (Example 3: 1 mL SC, exposure times 4 hours or less) was “demonstrated local skin tolerability”. For the setting “pig, in vivo”, the “Tissue samples/injections with multiple focal (immune cell) infiltrates in SC” value is recorded as 1/3. Moreover, under “pig, in vivo, sc”, the “Focal instances of [immune] cell infiltrates in the SC space” value was 2, the Necrosis was 0 and the “Pathohistological findings (H&E)” value is recorded as “no findings”.
